From article PMC10938568 (Science Advances, 2021) come the findings set out here.

Like-named read-outs stand apart in the source and are kept apart here.

B1: His8-TEV-GABARAP (1 to 117) (natural protein)
chain: MKFVYKEEHPFEKRRSEGEKIRKKYPDRVPVIVEKAPKARIGDLDKKKYLVPSDLTVGQFYFLIRKRIHLRAEDALFFFVNNVIPPTSATMGQLYQEHHEEDFFLYIAYSDESVYGL

What all share (test): SPR
A general note: Surface plasmon resonance follows binding to a sensor surface in real time, without labels.

Test [1] addresses T1, Biotinylated FLCN-8xGlycine-AviTag/FNIP2 (human, UniProt Q8NFG4;Q9P278, biotin on the AviTag).
In test [2] the target is T1, Biotinylated FLCN-8xGlycine-AviTag/FNIP2. The source holds these as a separate data set.
Test [3] deals with B1.
Another test concerns the target His8-TEV-LC3B (1 to 125) (human, UniProt Q9GZQ8 1-120).

In the case of B1, the Kd in test [1] was 0.071 ± 0.01 nM; in test [2] it was 0.3 ± 0.018 nM.

B2: GST-PreScission-p62 FIR 4P (domain or fragment)
chain: MESDNCSGGDDDWTHLSSKEVDPETGELQSLQMPESEGPEELDPEQEGPTGLKEA
For the molecule B2, the Kd amounted to 670 ± 80 nM in test [3] and 820 ± 40 nM in the test with His8-TEV-LC3B (1 to 125).

As usually defined, the Kd is the concentration at which binding is half-saturated. Higher therefore signals a looser complex.
